System: MS2 coat protein
Test: apparent KD of MS2 coat protein; higher = weaker reporter binding
Conditions: Eterna round: R107
Method in brief: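 Each design's apparent KD comes from the median of binding-curve fits to its normalised clusters. Those clusters carried RNA switches transcribed on-chip from Illumina sequencing clusters. SNAP-549-labelled MS2 coat protein was titrated onto them in twofold steps (0.7 or 1.5 nM to 3 µM; per step 0.8–1.5 h down to 10–20 min). Conditions were 100 mM Tris-HCl pH 7.5, 80 mM KCl, 4 mM MgCl2, without or with constant ligand.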

[1] = input ligand: theophylline 20 uM
[2] = input ligand: tryptophan 2.4 mM
[3] = input ligand: theophylline 2 mM

Sequence	apparent KD of MS2 coat protein (input ligand: arginine 13.2 mM)	apparent KD of MS2 coat protein [1]	apparent KD of MS2 coat protein [2]	apparent KD of MS2 coat protein [3]	apparent KD of MS2 coat protein (input ligand: none)
GCGCUAUUUAUUGAUACCAGAUACAGGAAUCACAUGAGGAUCACCCAUGUGGAAUGAAGGAUCCCUUGGCAGCAAUAGUCAAAAU [theeternabot_sameState_MS2_Theo_B_9]	16.6 nM	19.6 nM	19.9 nM	–	–
GCUAGGUCUACGGCCGCCACUAGACAUGGGUAAGACAUGAGGAUCACCCAUGUACUACGAGUGCAUAGGACCGGGUAGACCUAGC [SSTB NP+V+V2 #19 +-Same Structure]	111 nM	277 nM	–	516 nM	–
GCUGCCAUACGAAGGAGCGCUGGUGUAAUGAGGCGAACAUGAGGAUCACCCAUGUGGCAUAAGCAGGUAGGUCGCGUAUGGCAGC [EAB #16]	16.6 nM	20.2 nM	15.9 nM	20.8 nM	17.2 nM
GCUGGGUGCGCAAGGACCUGGCGUUGCGAUACCAGCACGGUAACGUGCCCUUGGCAGCGCACAUGAGGAUCACCCAUGUGGUGUG [#1 Exclusion - Theophylline A Attempt #20 (HarryS)]	96.8 nM	333 nM	162 nM	301 nM	230 nM
GCUGUACCAUGAAGGAGCGUCAUGGAUUGCGAAUACACAUGAGGAUCACCCAUGUUUUUAUGACAGGUAGGUCGCAUGGUACAGC [#01 Same State - Arginine B]	17.8 nM	24.5 nM	17.1 nM	19.2 nM	14.5 nM
GCUUCACAUGAGGAUCACCCAUGUCCGGAUACCAGCUCUCCAGACAGCCCUUGGCAGCCGAGCGCCCGAUUAUAUACCCUAGGAG [theeternabot_sameState_MS2_Theo_A_28]	21.1 nM	53.7 nM	27.9 nM	–	–
GGAACAUGAGGAUCACCCAUGUCGAGUGGUCGAGGACCGGUACGGCCGCCACUCGACAUUGCUCAUAGGUAUAGCGUGAGAACGC [Same State - Tryptophan 1]	100 nM	546 nM	618 nM	961 nM	326 nM
GGACUAACCAGAAGGAGCGACACGCAGAAACUGCUAUUUCCUCCGCACGAGGAUCACCCGUGUCAGGUAGGUCGCUGGUUAGUCG [ArgBX 28]	22.1 nM	25.4 nM	21.4 nM	20.3 nM	19.5 nM
GGACUAACCAGAAGGAGCGGCGCGCAGAAACUGCAAAAUCCUCCGCACGAGGAUCACCCGUGUCAGGUAGGUCGCUGGUUAGUCG [ArgBX 28]	18 nM	16.2 nM	17.3 nM	20.8 nM	17.7 nM
GGACUAACUCGAAGGAGCGACGCGCAGAAACUGCAAUUUCCUCCACACGAGGAUCACCCGUGUCAGGUAGGUCGCGAGUUAGUCG [ArgBX 29]	14.9 nM	18.6 nM	16 nM	14.7 nM	12.8 nM
GGAGGUACCUGAAGGAGCGACAUGAGGAUCACCCAUGUCUCCCGUUAUGGGAGUUCUUUAGGUCAGGUAGGUCGCAGGUACCUCC [#1 Exclusion - Arginine B Attempt #3 (Inspired by Omei)]	13.7 nM	–	–	–	88.2 nM
GGAGUCGUCACGGCCGCCACUGCGGUGGUGUGACAUGAGGAUCACCCAUGUUGUCAUGCGGCCCUUAGGACCGGGUGUCGGUUCC [#1 Exclusion - Tryptophan B Attempt #23 (HarryS)]	57.1 nM	85.1 nM	–	78.3 nM	–
GGAUAGGACACGGCCGCCACUAGCUAGGAUACUAGCAACAUUUCCUCACAUGAGGAUCACCCAUGUAGGACCGGGUGUCCUAUCG	79.9 nM	145 nM	–	112 nM	–
GGAUAGGACGGAAGGAGCGACGUGAGGCUAAUGUCCAGUCUUCUACAUGAGGAUCACCCAUGUCAGGUAGGUCGCCGUCCUAUCG [#21 Exclusion - Arginine B]	30.3 nM	51.7 nM	41.8 nM	40.7 nM	28.1 nM
GGAUGCCACUAUGGAUAGCACGAUGCCGAUACCAGCUAGGAAACUAGCCCUUGGCAGCGGAACAUGAGGAUCACCCAUGUAUCCU [EThA NP+V+V2 #8]	21.3 nM	30.5 nM	21.6 nM	42.7 nM	24.2 nM
GGAUGGAACUCGGCCGCCACUGGUGAUCCUAAUGUACAUGAGGAUCACCCAUGUACAUGAGAAGAUAGGACCGGGAGAUAACAUG [V5]	23.5 nM	31.2 nM	–	29.4 nM	–
GGAUUCAACUCGGCCGCCACUGGUGAUCCUAAUGUACAUGAGGAUCACCCAUGUACAUGAGAAUACAGGACCGGGAGAUAAGCAA [Tryptophan B V2 (+4A)]	20.1 nM	26.5 nM	–	24 nM	–
GGCACAUAGUCGGCCGCCACUACGUGGAGAUCGGAGUACAUGAGGAUCACCCAUGUAUGGAAGGGUAGGACCGGGACUAUGUGCC [Horalka]	38.3 nM	38.5 nM	18.7 nM	123 nM	67.1 nM
GGCACAUAGUCGGCCGCCACUAGGGUGUAGUGGAAUAACAUGAGGAUCACCCAUGUAUUUGGGACUAGGACCGGGACUAUGUGCC [Leopard]	27.2 nM	40.4 nM	–	30 nM	–
GGCACCAGGCGAAGGAGCGUGAAGACAUGAGGAUCACCCAUGUAGAGGCCCGGACAGGGUUCGCAGGUAGGUCGCGCCUGGUGCC [#1 Same State - Arginine B Attempt #9 (HarryS)]	22.9 nM	40.6 nM	13.5 nM	26.8 nM	16.2 nM
GGCAGUCAUAGCAGGGCAAAUAUACUCGAAGGAGCGUCAUAGUAGGCAGGUAGGUCGCGAGACAUGAGGAUCACCCAUGUAGAGA [uuumullin]	26.1 nM	46 nM	49.3 nM	66 nM	68.9 nM
GGCCAUGGAAACAUGGCGGCGGCAUAUGCGCGAGGACCGGUACGGCCGCCACUCGGGCAACAUGAGGAUCACCCAUGUUCCUCAU [ETA NP+V+V2 #24 +-Same Structure]	67.4 nM	356 nM	–	388 nM	–
GGCCUAGCGAGCGCUCGCUAGGCCGCGGAUACCAGCGAGGUCCAUCGCCCUUGGCAGCCGAACAUGAGGAUCACCCAUGUCGGUA [#1 Same State - Theophylline A Attempt #15 (HarryS)]	9.5 nM	13.4 nM	9.68 nM	16.9 nM	10.3 nM
GGCUAGGUCUCGGCCGCCACUGCUACAUGAGGAUCACCCAUGUACCUGGGCGGUCGCUCCCUCGGCAGGACCGGGAGACAUUCGU [Onarbeisan]	9.2 nM	13.8 nM	–	12.5 nM	–
GGGCCCGGGCCCGCGCGGGCCCGGGCCCAACGAGGACCGGUACGGCCGCCACUCGAACGAGUGGGUACAUGAGGAUCACCCAUGU [Baa]	38.6 nM	55.9 nM	33.4 nM	48.6 nM	30.7 nM
GGGCUUGUGGUGCGGCGUGUUCCGCUCCGUCGAGGACCGGUACGGCCGCCACUCGACAUGAGGAUCACCCAUGUGCGAGCGCGCG [#1 Exclusion - Tryptophan A Attempt #7 (HarryS)]	11.4 nM	16.1 nM	25.1 nM	15.4 nM	17.3 nM
GGGUCAGGCGCGGCCGCCACUGCGGUGAUGUGACAUGAGGAUCACCCAUGUUGUCAUGUGGCACAUAGGACCGGGUGCCUGGCCC [#1 Exclusion - Tryptophan B Attempt #6 (HarryS)]	28.3 nM	50.2 nM	–	33.8 nM	–

Reference: the supplement of paper PMC9170038
